Key:
[1] = target: CD47 on Jurkat T cells (human (endogenous in Jurkat)) (UniProt Q08722)
[2] = target: wild-type CD47 re-expressed in CD47-deficient JinB8 T cells (UniProt Q08722)

Substance	reduction of CD69 mRNA expression (real-time PCR) in Jurkat T cells activated by anti-CD3 antibody for 2 hours, TSP-1 10 µg/ml; no inhibition in CD47-deficient JinB8 T cells [1] [%]	inhibition of CD69 induction (mRNA, real-time PCR) in anti-CD3-activated JinB8 cells transfected with wild-type CD47 [2] [%]	reduction of CD69 mRNA expression (real-time PCR) in Jurkat T cells activated by anti-CD3 antibody for 2 hours, BAD-1 10 µg/ml; no block in CD47-deficient JinB8 T cells [1] [%]
recombinant thrombospondin-1 (TSP-1) (from UniProt P07996 19-1170) (natural protein)	45	35.1	–
Blastomyces adhesin-1 (BAD-1), native protein purified from B. dermatitidis yeast (natural protein)	–	34.9	65

Source: publication PMC3708853
